Results on three molecules are retold here after paper doi:10.1101/2023.07.20.549859 (bioRxiv, 2023).

The labels stand for the following.
B3: primase regulatory subunit PRIM2 (1-509) (natural protein, human, UniProt P49643 1-509, looked up)
chain: MEFSGRKWRKLRLAGDQRNASYPHCLQFYLQPPSENISLIEFENLAIDRVKLLKSVENLGVSYVKGTEQYQSKLESELRKLKFSYRENLEDEYEPRRRDHISHFILRLAYCQSEELRRWFIQQEMDLLRFRFSILPKDKIQDFLKDSQLQFEAISDEEKTLREQEIVASSPSLSGLKLGFESIYKIPFADALDLFRGRKVYLEDGFAYVPLKDIVAIILNEFRAKLSKALALTARSLPAVQSDERLQPLLNHLSHSYTGQDYSTQGNVGKISLDQIDLLSTKSFPPCMRQLHKALRENHHLRHGGRMQYGLFLKGIGLTLEQALQFWKQEFIKGKMDPDKFDKGYSYNIRHSFGKEGKRTDYTPFSCLKIILSNPPSQGDYHGCPFRHSDPELLKQKLQSYKISPGGISQILDLVKGTHYQVACQKYFEMIHNVDDCGFSLNHPNQFFCESQRILNGGKDIKKEPIQPETPQPKPSVQKTKDASSALASLNSSLEMDMEGLEDYFSEDS

Read-outs that look alike come from different tables or passages of the source.

What all share (experiment): cryo-EM structure
The target in assay [1] is T1, DNA polymerase alpha catalytic subunit POLA1 (334-1462) (human, UniProt P09884 334-1462).
T1 sequence (looked up): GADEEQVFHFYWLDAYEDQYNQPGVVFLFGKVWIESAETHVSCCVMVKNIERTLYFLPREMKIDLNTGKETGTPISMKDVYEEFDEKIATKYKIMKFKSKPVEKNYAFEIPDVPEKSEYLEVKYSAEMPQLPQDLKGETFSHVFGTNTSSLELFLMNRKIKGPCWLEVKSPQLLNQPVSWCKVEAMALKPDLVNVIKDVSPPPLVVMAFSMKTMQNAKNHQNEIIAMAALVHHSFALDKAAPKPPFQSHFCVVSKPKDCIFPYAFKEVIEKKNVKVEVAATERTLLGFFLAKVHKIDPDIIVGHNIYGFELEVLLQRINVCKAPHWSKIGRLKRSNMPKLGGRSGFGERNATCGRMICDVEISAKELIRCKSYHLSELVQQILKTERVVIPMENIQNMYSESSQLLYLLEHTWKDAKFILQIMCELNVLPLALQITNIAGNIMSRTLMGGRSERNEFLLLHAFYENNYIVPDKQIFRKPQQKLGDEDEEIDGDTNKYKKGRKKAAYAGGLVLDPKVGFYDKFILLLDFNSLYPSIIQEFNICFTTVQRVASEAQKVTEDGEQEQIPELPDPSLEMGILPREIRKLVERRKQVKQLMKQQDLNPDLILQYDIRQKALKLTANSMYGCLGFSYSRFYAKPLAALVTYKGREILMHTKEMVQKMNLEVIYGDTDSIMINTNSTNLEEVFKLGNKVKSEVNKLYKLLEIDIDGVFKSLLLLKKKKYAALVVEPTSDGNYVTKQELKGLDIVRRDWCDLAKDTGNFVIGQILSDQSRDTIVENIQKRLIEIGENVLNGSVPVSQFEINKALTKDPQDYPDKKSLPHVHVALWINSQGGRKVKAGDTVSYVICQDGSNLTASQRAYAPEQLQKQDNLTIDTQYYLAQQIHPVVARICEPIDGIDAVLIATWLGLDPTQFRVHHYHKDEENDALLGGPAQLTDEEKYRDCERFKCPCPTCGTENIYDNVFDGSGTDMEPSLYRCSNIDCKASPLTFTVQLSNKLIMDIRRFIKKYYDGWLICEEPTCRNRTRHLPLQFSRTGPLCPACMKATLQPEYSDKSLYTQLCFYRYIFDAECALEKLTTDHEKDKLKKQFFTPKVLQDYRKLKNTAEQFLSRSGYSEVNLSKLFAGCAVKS

For assay [2], the target named is B3.
Assay [3] deals with T1, DNA polymerase alpha catalytic subunit …. This is another data set of the same source.

B1: DNA polymerase alpha accessory B subunit POLA2 (149-598) (domain or fragment, human, UniProt Q14181 149-598, looked up)
chain: SSFSPSATPSQKYNSRSNRGEVVTSFGLAQGVSWSGRGGAGNISLKVLGCPEALTGSYKSMFQKLPDIREVLTCKIEELGSELKEHYKIEAFTPLLAPAQEPVTLLGQIGCDSNGKLNNKSVILEGDREHSSGAQIPVDLSELKEYSLFPGQVVIMEGINTTGRKLVATKLYEGVPLPFYQPTEEDADFEQSMVLVACGPYTTSDSITYDPLLDLIAVINHDRPDVCILFGPFLDAKHEQVENCLLTSPFEDIFKQCLRTIIEGTRSSGSHLVFVPSLRDVHHEPVYPQPPFSYSDLSREDKKQVQFVSEPCSLSINGVIFGLTSTDLLFHLGAEEISSSSGTSDRFSRILKHILTQRSYYPLYPPQEDMAIDYESFYVYAQLPVTPDVLIIPSELRYFVKDVLGCVCVNPGRLTKGQVGGTFARLYLRRPAADGAERQSPCIAVQVVRI
Take B1: the binding result in assay [1] was “binds”.

B2: primase catalytic subunit PRIM1 (1-420) (enzyme, human, UniProt P49642 1-420, looked up)
chain: METFDPTELPELLKLYYRRLFPYSQYYRWLNYGGVIKNYFQHREFSFTLKDDIYIRYQSFNNQSDLEKEMQKMNPYKIDIGAVYSHRPNQHNTVKLGAFQAQEKELVFDIDMTDYDDVRRCCSSADICPKCWTLMTMAIRIIDRALKEDFGFKHRLWVYSGRRGVHCWVCDESVRKLSSAVRSGIVEYLSLVKGGQDVKKKVHLSEKIHPFIRKSINIIKKYFEEYALVNQDILENKESWDKILALVPETIHDELQQSFQKSHNSLQRWEHLKKVASRYQNNIKNDKYGPWLEWEIMLQYCFPRLDINVSKGINHLLKSPFSVHPKTGRISVPIDLQKVDQFDPFTVPTISFICRELDAISTNEEEKEENEAESDVKHRTRDYKKTSLAPYVKVFEHFLENLDKSRKGELLKKSDLQKDF
With B2, the binding result in assay [1] and in assay [2] was “binds” each time.

B3: the binding result in assay [3] was “binds”.
